This is an account of results in patent publication US20220049021A1.

Assay [1] concerns the target T1, human FLT3 on AML5 cells (human) (UniProt P36888).
T1 sequence (looked up): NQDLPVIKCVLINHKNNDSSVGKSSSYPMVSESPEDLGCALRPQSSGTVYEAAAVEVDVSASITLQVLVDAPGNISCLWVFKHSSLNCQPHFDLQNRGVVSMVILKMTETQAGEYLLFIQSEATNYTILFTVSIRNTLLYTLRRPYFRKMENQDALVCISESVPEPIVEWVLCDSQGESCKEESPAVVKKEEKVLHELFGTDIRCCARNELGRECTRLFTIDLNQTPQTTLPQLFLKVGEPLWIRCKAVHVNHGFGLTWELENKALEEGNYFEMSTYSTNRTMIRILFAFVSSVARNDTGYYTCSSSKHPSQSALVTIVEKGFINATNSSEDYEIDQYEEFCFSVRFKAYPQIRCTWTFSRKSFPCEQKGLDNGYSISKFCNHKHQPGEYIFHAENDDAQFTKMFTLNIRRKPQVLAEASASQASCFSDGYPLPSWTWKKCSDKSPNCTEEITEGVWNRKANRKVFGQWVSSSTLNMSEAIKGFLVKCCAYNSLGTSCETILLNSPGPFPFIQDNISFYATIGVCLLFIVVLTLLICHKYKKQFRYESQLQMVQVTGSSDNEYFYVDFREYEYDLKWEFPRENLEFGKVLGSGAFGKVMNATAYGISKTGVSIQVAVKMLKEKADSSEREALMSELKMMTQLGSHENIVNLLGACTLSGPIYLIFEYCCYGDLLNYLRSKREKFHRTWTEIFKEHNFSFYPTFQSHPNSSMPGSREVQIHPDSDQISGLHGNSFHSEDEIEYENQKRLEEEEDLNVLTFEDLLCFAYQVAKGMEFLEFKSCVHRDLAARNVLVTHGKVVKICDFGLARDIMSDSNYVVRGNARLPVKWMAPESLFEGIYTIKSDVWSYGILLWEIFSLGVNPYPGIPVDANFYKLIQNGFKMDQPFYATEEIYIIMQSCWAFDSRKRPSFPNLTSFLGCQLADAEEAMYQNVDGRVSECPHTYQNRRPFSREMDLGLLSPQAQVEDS
The assay is described as follows: cell-based or functional assay.

Assay [2] concerns the target T2, mouse FLT3 on M1 cells (mouse) (UniProt Q00342).
T2 sequence (looked up): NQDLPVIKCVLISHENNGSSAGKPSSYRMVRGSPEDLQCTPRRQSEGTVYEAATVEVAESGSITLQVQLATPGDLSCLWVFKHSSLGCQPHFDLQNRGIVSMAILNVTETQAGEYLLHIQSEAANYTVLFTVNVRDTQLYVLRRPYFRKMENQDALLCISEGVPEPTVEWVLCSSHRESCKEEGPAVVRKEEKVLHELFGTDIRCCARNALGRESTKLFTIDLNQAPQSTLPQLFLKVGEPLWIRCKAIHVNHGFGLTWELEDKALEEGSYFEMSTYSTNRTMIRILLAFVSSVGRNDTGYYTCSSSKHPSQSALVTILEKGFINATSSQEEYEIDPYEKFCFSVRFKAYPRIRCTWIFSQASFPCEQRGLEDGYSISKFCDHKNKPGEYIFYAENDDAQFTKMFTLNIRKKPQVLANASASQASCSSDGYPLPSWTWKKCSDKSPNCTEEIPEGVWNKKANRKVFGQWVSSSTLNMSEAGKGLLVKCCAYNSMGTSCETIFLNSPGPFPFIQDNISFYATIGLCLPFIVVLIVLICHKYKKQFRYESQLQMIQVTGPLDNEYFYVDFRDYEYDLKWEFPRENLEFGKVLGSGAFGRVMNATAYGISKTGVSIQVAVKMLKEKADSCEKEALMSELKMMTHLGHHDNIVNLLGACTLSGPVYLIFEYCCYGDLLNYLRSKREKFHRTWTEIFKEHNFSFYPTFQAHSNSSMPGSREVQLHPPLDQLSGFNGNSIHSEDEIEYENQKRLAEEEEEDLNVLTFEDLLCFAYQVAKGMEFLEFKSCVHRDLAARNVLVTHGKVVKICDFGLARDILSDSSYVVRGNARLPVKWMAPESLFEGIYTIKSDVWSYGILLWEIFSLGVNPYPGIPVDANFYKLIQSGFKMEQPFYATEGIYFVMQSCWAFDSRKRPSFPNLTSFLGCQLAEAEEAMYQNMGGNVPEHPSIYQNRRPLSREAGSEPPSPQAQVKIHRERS
As to the kind of experiment: cell-based or functional assay.

B1: mouse FLT3-ligand mouse IgG2a (LALA-PG) fusion protein (SEQ ID NO:19) (Fc fusion)
chain: TPDCYFSHSPISSNFKVKFRELTDHLLKDYPVTVAVNLQDEKHCKALWSLFLAQRWIEQLKTVAGSKMQTLLEDVNTEIHFVTSCTFQPLPECLRFVQTNISHLLKDTCTQLLALKPCIGKACQNFSRCLEVQCQPDSSTLLPPRSPIALEATELPEPRGPTIKPCPPCKCPAPNAAGGPSVFIFPPKIKDVLMISLSPIVTCVVVDVSEDDPDVQISWFVNNVEVHTAQTQTHREDYNSTLRVVSALPIQHQDWMSGKEFKCKVNNKDLGAPIERTISKPKGSVRAPQVYVLPPPEEEMTKKQVTLTCMVTDFMPEDIYVEWTNNGKTELNYKNTEPVLDSDGSYFMYSKLRVEKKNWVERNSYSCSVVHEGLHNHHTTKSFSRTPGK
For the molecule B1, the EC50 (nM), Inducing Proliferation of AML5 Cells in assay [1] stood at 0.171 nM.

B2: mouse FLT3-ligand mouse IgG2a (C136S LALA-PG) fusion protein (SEQ ID NO:20) (Fc fusion)
chain: TPDCYFSHSPISSNFKVKFRELTDHLLKDYPVTVAVNLQDEKHCKALWSLFLAQRWIEQLKTVAGSKMQTLLEDVNTEIHFVTSCTFQPLPECLRFVQTNISHLLKDTSTQLLALKPCIGKACQNFSRCLEVQCQPDSSTLLPPRSPIALEATELPEPRGPTIKPCPPCKCPAPNAAGGPSVFIFPPKIKDVLMISLSPIVTCVVVDVSEDDPDVQISWFVNNVEVHTAQTQTHREDYNSTLRVVSALPIQHQDWMSGKEFKCKVNNKDLGAPIERTISKPKGSVRAPQVYVLPPPEEEMTKKQVTLTCMVTDFMPEDIYVEWTNNGKTELNYKNTEPVLDSDGSYFMYSKLRVEKKNWVERNSYSCSVVHEGLHNHHTTKSFSRTPGK
With B2, the EC50 (nM), Inducing Proliferation of AML5 Cells in assay [1] worked out at 0.115 nM.

B3: recombinant human FLT3-ligand human IgG1 fusion protein (Fc fusion, UniProt P49771 27-185, looked up, not shown: a dimerising Fc or GST)
chain: TQDCSFQHSPISSDFAVKIRELSDYLLQDYPVTVASNLQDEELCGGLWRLVLAQRWMERLKTVAGSKMQGLLERVNTEIHFVTKCAFQPPPSCLRFVQTNISRLLQETSEQLVALKPWITRQNFSRCLELQCQPDSSTLPPPWSPRPLEATAPTAPQPP
As to B3, in assay [2], the EC50(nM), M1 IL-6 release assay was determined as 0.117 nM and the Emax(pg/ml), M1 IL-6 release assay came to 517 pg/mL.

B4: recombinant human FLT3-ligand (ligand, UniProt P49771 27-185, looked up)
chain: TQDCSFQHSPISSDFAVKIRELSDYLLQDYPVTVASNLQDEELCGGLWRLVLAQRWMERLKTVAGSKMQGLLERVNTEIHFVTKCAFQPPPSCLRFVQTNISRLLQETSEQLVALKPWITRQNFSRCLELQCQPDSSTLPPPWSPRPLEATAPTAPQPP
In the case of B4, the EC50 (nM), Inducing Proliferation of AML5 Cells in assay [1] was 0.039 nM. In assay [2], the EC50(nM), M1 IL-6 release assay amounted to 0.024 nM and the Emax(pg/ml), M1 IL-6 release assay is 392 pg/mL.
